# B1: native rat liver glycine N-methyltransferase (enzyme, UniProt P13255 2-293, looked up)
# chain: VDSVYRTRSLGVAAEGIPDQYADGEAARVWQLYIGDTRSRTAEYKAWLLGLLRQHGCHRVLDVACGTGVDSIMLVEEGFSVTSVDASDKMLKYALKERWNRRKEPAFDKWVIEEANWLTLDKDVPAGDGFDAVICLGNSFAHLPDSKGDQSEHRLALKNIASMVRPGGLLVIDHRNYDYILSTGCAPPGKNIYYKSDLTKDITTSVLTVNNKAHMVTLDYTVQVPGAGRDGAPGFSKFRLSYYPHCLASFTELVQEAFGGRCQHSVLGDFKPYRPGQAYVPCYFIHVLKKTG
# modifications: acetylated N-terminal valine (Val1)
# Target: the molecule itself
# Assay: crystal structure
protein,measurement,value
B1,stoichiometry N,4
